Test results as given in a protein production outcome set (Wang et al. 2014).

Experiment: label from the status in PepcDB records

| Sequence | protein production |
| --- | --- |
| MQGENAPQRSAEVTILDKQAIDIPHPLPGQDDQEFWIYVQKGRLGPKREFQVGIHYYHALNPGDKGVLTYQGQRFLHFALKRLEHHHHHH | not failed |
| MQGHHFGGDMSNSEAIDNTTAKLRLAQSSSLLALALLIGSAPAQAADTDWGWLAIGAPAATAQGWTGKGVVIGVVDTGIDFSHPALSGRAFDYNYGSFVAGSNHPHATHVAGIIGATDINRGMEGVAPDVRFSSMKIFTGAGGSYLGDAAVADAYDGAIGSGVRIFNNSWGSSDSIANFTSREELLAHEPLLVGAFTRAVNADAVLVWSTGNDGRSQPSWQAAAPYYIQELKANWIAVTSVGENGTIASYANACGVAKAWCLAAPGGDFNPGIYSTIPGKDYGYMSGTSMAAPYVTGATAIARQMFPKASGAQLAQIVLQTSRDIGAPGIDDVYGWGLLAVDNIVDTINPRGAALFASAAWGRFTTLSAIGNTVLDRISDLRNGRGDVVTAPLAFAGQNGAFSQSGSNPRNAYAADLAAAPQPSPLGFGSVWARGLAGRATLSGSASSPQTTADISGGLLGFDLVNNQNLLVGIAGGGSNTNLTASGISDKAGAQAWHVLGYAAAMYGPAFVNVAGGWNSFDQSYQRRVIPGTAGTVFASTISAAQSSSTDVAYFFQGRGGWTFQTEVGRIEPYVHGATRNQSFGGFSETNASIFSLSVPSASLSEAEYGAGVRWACAPIKTVDQRVAVAPTIDLAYVRFTNDGPIQVETNLLGTSVVGQTAALGADAIRVAAGLSLTSLAGISGSFGYTGTVRDAATAHTVSGGLSIKF | failed |
| MQIFVNGETIETEVITLNLLLEELGYEGNWLATAVNAEVVPIDARSRCVLHEGDKIEILSPMQGG | failed |
| MQIGGRQHGDWTHYSVDSDLVVAADAWQVSLGLPGGVFPPDVEPGAMVKVQVGGETVLMGRIDDISHSVASGSHQLTLSGRDLAGMLLDCSAPLFTGKGMTLQDVLDNVVKPLGIANIRVDAKARGQIEKINVDPGNSAWDVLTRAAQANGLTAWFDPDGTLLVGGPDYSRPASARLILRRDGKGNNVLSLAETRSHAQRYSELTLLGQGHGQSLTPGRHAMRHHVFDSDVCYHKPRIQVEPDAASPAELAARADKMLADARLAGYTLTATVAGHRDSQGALWTPGQRIEVESEPHGINGTYFLMARTFEGGRGQGSVTRLTLKEDKCWIPVMRAGKQ | failed |
| MQIIEGKLQLQGNERVAILTSRFNHIITDRLQEGAMDCFKRHGGDEDLLDIVLVPGAYELPFILDKLLESEKYDGVCVLGAIIRGGTPHFDYVSAEATKGIAHAMLKYSMPVSFGVLTTDNIEQAIERAGSKAGNKGFEAMSTLIELLSLCQTLKG | failed |
| MQIKELAELTGVSVRTLHHYDKIGLLVPQKDDWNGYRIYSEKDVDKLQQILFFKELDFPLKKIQQILDDPLFDKNVALDMQRHLLIEKKQRIETMLATLDLTIKNEKGEITMTNKEKFTGFDFSSNPYEEEARKLWGDKVVEKANEKVNNMSEKEQLTLKESFDAEFRHLASVRKLTPESEEAQLEIDHFFHYLNDTHGNIYSLEAFASLGEMYVNDERFTKNIDQFGDGLSQFLQEAMTIYAKNK | not failed |
| MQISIKTVKGKSINLEVADSSDTIDLKINGEPTRQLVLRLGPAVLMRIFVSTIKEKTFILEVKGSDTIKKLKSMIHDQGGPPVDQQDLNHLGTKLKNNATISDYNIKPDANLVIMQNGCIC | failed |
| MQITIKVLKGKDCTIEVAPTSTILEVKHQIEAELQISATNQKLLLLGRPLNNEQTIASYPNIKEGTKLNLVVIKP | failed |
| MQITIKVLKGKDCTIEVAPTSTILEVKHQIEAELQISATNQKLLLLGRPLNNEQTIASYPNIKEGTKLNLVVIKPCLRDSILRGFRKHYSEPLAERMTNEFMADFERKINEQSLDDLERLADSIVNRAAT | failed |
| MQIVKKEKFILKEYTFENGRTIPVQMGYETYGTLNRERSNVILICHYFSATSHAAGKYTAHDEESGWWDGLIGPGKAIDTNQYFVICTDNLCNVQVKNPHVITTGPKSINPKTGDEYAMDFPVFTFLDVARMQCELIKDMGIARLHAVMGPSAGGMIAQQWAVHYPHMVERMIGVITNPQNPIITSVNVAQNAIEAIRLDPSWKGGKYGEEQPMKGLQLANRMMFMNAFDEHFYETTYPRNSIEVEPYEKVSSLTSFEKEINKLTYRSIELVDANSWMYTAKAVLLHDIAHGFSSLEEALSNVEANVLMIPCKQDLLQPSRYNYKMVDLLQKQGKYAEVYEIESINGHMAGVFDIHLFEKKVYEFLNRKVSSFV | not failed |
| MQKCSLITVISLSVLMLAGCTTTYTMTTRTGEIIETQGKPEVDTATGMTKYADAYGYHRVIKTSEIVQTTEGASKLDWLEHHHHHH | failed |
| MQKINIDRHATAQINMLANKLMLKSSTAYTQKFGIGMTEWRIISVLSSASDCSVQKISDILGLDKAAVSRTVKKLEEKKYIEVNGHSEDKRTYAINLTEMGQELYEVASDFAIEREKQLLEEFEEAEKDQLFILLKKLRNKVDQM | not failed |
| MQKIPGYENTNSEVPDKKYWLYGLMIVFFALAFRLFELGERVLHHDESIHASFTLKLLEHGEYSYDPAYHGPFLFHSTAAVFHFLGITDTTSRLVPVLFGVATILLLFLLKKELGKNGVLWSMFLLAFSPSMVYFSRFFRNDMIIIFCTLAAVTGAFRYLDSIHSLKRYPYLVLAASSLAVAVSSKENAYIILAVFGAYAGLGFLYWICSDWKKENMGLKETLRSKTSALLPYLPEIILSGALSVFIIMFFYSSAFRYDVSLFSIVERAFNHWMEMHSIERIGGPFYYYIPILLRYEIPVVLFGAAGFFYFLFNRVRNKGQNYSFFLFLCYWALTSLLLYSYIQEKVPWLVVHIVLPFGLLAGAFLGEVFSKKNKDGQPKKPDYPGKIRALLTVILVLTLLVFISQCISVNYYRSMEDEELITYTQASPDIRILMEKIEGFNESPDTLRIYVIDQYQLYWPLPWYLRDYERAAYSSKPPSSSKYDAIIVPISCDMYRELSEEEYSSYNFTLRPGRDFTLYYNNKLEQQ | failed |
| MQKKNFWQIYFGKDPFSKAEFIKAWIGWWVIAIVLLGVLSICTSLNLRGIGIALGFGFCQIHARYLTFVGWNKFIGVLGVFPVTNIILFIVLLFTKKK | failed |
| MQKKSIYVAYTGGTIGMQRSDNGYIPVSGHLQRQLALMPEFHRPEMPDFTIHEYAPLIDSSDMTPEDWQHIANDIQQNYDLYDGFVILHGTDTMAFTASALSFMLENLAKPVIITGSQIPLAELRSDGQTNLLNALYLAANHPVNEVSLFFNNQLFRGNRTTKAHADGFDAFASPNLSVLLEAGIHIRRQSSVVSPTSNGPLIVHRITPQPIGVVTIYPGISGAVVRNFLLQPVKALILRSYGVGNAPQKAELLDELKNASDRGIVVVNLTQCISGSVNMGGYATGNALAQAGVISGFDMTVEAALTKLHYLLSQSLSPNEIRQLMQQNLRGELTDTQ | not failed |
| MQKKTQKLTVYVIVGLLIISLVGTSFMFLGDMRPTVGKNYQDQINSLKQALEANPQDTQTRLALADTYYDWGMQTLSQDMAEENLATTTSILQQAVTEYQEVLKTEKNVNILVDMATAAFYTSQNELADQTFQEALQEDPNFYNGLYNYGVFLYSQGDYGKAIEQWEKALALENISTDDKERLERNIKLAQDGIVQQFQQPENGDSSDANAEAK | failed |
| MQKLVEQVWDYTKHAKFYSYRPNYAPKTIDMLISLVGKKDIKVADIGAGTGNLSIMLLERGCKVVSVEPNDAMREIGIERTKDQKIDWVRATGLNSTLQNSEFDWVTFGSSFNVMDRNEALEEAHRLLKSEGYFSCMWNHRDLNDPVQKIAEDTIVEFVPNYTRGTRREDQRPIIESRKDLFDNIVYIEEDFYFHQSIENYINAWKSVKNPYWDLETDEGNELFNKISNKISQRLPKEFSIKYTTRCWSAKKI | failed |
| MQLHELVNTLGQDLQRRYGEKVHKLTLHGGFSCPNRDGTIGRGGCTFCNVASFADEEVQIKSIHEQLKDRAGEIHRAKKYLAYFQAYTSTYAEVQVLKNMYEEALKAADIVGLCVGTRPDCVPDSVLDLLSDYVNQGYEIWLELGLQTANNDTLKRINRGHDFECYAEITQRARALGIKVCTHLIVGLPKETRDDNIETLQKVLAVGTDGIKLHGLHIVEGSTMAKAWRAGRLEAPGLEEYVAIASEMIRMTPADVVFHRVSSAARRPTLLSPLWCENRWLAMTEIGRALNKDGAQGSLIGKPFIYTKPELKADCSINN | failed |
| MQLITFLHEFIKHPKHTGAIAPSSKILAKKMVDVIDFNKAKCIVELGPGTGVFTKEIMKRKKKETIFLLIEINEVFFKELKRKFKDEQNVIVVHGSAENIKKYMGEHNIECIDYVLSGLPFTSLPEEVSKRILNNAMEAIHENGEFITFQYSLVKKGFIQHFFPEITLEKVWLNFPPAYVFSCKKELRRAYA | failed |
